# Measured values as given in the supplement of paper PMC10065799, “High-throughput profiling of sequence recognition by tyrosine kinases and SH2 domains using bacterial peptide display” (eLife, 2023).
# Experiments:
# [1] = tested on: AncSZ; experiment: phosphorylation enrichment, bacterial display (enrichment ratio); higher = better substrate or ligand; peptides without Tyr show the background
# [2] = target: EPHB1 (UniProt P54762); experiment: as above
# [3] = target: EPHB2 (UniProt P29323); experiment: as above
# [4] = target: FGFR1 (UniProt P11362); experiment: as above
# [5] = target: FGFR3 (UniProt P22607); experiment: as above
# Sequence of FGFR3 (P22607 whole entry, looked up): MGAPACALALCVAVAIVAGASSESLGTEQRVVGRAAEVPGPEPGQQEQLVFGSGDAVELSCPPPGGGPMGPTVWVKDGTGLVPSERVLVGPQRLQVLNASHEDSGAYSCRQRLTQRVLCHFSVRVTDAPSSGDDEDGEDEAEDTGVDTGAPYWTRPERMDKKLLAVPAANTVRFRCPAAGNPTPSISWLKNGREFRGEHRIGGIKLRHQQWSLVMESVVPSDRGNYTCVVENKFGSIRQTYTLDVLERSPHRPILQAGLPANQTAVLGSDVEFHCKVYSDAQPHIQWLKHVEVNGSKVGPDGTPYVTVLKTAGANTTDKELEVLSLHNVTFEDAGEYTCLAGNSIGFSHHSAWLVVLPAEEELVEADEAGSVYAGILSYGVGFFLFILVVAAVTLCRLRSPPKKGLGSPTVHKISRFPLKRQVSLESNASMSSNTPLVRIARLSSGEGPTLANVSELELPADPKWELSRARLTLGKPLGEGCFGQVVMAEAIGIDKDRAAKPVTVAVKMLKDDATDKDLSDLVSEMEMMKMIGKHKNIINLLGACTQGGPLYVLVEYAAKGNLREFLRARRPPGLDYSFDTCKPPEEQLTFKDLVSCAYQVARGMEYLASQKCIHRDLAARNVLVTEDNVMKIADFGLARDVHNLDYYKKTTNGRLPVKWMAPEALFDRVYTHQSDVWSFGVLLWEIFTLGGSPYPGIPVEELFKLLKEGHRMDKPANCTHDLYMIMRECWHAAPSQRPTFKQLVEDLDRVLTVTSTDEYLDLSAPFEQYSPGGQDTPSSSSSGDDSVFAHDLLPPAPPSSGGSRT
# [6] = tested on: Fer (mouse); experiment: as above
# [7] = target: Fes (UniProt P07332); experiment: as above
# Sequence of Fes (P07332 whole entry, looked up): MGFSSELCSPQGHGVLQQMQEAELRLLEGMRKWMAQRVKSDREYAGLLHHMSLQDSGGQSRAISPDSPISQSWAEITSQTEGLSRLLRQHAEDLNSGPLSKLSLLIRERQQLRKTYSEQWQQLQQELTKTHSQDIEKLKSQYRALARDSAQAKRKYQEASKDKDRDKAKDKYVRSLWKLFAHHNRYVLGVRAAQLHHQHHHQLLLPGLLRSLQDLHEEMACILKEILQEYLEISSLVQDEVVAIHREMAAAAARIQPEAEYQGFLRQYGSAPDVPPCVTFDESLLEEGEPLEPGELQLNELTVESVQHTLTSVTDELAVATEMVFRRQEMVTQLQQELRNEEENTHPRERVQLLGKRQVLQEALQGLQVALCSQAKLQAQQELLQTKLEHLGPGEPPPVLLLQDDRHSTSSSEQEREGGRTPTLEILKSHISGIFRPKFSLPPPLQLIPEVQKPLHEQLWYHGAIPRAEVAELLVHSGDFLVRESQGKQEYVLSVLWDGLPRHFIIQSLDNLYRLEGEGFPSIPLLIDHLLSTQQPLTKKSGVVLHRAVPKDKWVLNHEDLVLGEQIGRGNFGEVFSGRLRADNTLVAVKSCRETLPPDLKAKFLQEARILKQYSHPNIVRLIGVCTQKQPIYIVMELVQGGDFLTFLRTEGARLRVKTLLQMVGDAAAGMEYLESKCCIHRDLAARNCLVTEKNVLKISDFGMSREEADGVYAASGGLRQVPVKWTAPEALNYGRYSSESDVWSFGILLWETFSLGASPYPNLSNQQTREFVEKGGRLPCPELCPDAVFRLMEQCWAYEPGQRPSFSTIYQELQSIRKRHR
# [8] = target: Fyn (UniProt P06241); experiment: as above
# [9] = target: Hck (UniProt P08631); experiment: as above
# [10] = target: Jak2 (UniProt O60674); experiment: as above
# Sequence of Jak2 (O60674 whole entry, looked up): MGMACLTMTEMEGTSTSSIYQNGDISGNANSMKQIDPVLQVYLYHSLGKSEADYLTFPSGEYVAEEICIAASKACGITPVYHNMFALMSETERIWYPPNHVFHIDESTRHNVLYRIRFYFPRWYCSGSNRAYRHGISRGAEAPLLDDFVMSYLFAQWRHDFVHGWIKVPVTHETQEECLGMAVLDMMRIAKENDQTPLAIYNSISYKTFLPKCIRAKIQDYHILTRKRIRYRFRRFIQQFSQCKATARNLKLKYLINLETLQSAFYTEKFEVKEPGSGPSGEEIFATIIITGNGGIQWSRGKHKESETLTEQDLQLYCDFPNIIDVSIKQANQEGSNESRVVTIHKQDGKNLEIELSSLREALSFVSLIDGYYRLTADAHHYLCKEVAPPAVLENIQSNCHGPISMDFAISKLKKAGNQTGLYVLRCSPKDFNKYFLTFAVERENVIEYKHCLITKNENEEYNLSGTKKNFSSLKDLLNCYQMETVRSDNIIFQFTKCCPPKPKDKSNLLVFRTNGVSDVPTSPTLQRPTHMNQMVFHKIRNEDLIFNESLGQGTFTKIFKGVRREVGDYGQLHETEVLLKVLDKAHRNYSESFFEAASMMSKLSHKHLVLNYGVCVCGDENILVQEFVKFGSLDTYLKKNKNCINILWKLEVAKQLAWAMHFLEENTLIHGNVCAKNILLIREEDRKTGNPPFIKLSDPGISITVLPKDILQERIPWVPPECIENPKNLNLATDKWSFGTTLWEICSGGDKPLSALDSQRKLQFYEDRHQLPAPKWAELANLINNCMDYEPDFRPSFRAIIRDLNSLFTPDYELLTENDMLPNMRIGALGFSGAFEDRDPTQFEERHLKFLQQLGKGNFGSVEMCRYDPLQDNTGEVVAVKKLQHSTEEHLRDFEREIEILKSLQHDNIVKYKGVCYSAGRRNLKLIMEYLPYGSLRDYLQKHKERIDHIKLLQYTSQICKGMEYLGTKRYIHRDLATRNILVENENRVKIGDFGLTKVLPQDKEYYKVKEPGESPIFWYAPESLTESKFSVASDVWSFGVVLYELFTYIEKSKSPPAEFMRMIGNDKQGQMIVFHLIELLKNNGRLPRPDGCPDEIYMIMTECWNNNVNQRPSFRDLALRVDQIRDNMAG
# [11] = target: MERTK (UniProt Q12866); experiment: as above
# Sequence of MERTK (Q12866 whole entry, looked up): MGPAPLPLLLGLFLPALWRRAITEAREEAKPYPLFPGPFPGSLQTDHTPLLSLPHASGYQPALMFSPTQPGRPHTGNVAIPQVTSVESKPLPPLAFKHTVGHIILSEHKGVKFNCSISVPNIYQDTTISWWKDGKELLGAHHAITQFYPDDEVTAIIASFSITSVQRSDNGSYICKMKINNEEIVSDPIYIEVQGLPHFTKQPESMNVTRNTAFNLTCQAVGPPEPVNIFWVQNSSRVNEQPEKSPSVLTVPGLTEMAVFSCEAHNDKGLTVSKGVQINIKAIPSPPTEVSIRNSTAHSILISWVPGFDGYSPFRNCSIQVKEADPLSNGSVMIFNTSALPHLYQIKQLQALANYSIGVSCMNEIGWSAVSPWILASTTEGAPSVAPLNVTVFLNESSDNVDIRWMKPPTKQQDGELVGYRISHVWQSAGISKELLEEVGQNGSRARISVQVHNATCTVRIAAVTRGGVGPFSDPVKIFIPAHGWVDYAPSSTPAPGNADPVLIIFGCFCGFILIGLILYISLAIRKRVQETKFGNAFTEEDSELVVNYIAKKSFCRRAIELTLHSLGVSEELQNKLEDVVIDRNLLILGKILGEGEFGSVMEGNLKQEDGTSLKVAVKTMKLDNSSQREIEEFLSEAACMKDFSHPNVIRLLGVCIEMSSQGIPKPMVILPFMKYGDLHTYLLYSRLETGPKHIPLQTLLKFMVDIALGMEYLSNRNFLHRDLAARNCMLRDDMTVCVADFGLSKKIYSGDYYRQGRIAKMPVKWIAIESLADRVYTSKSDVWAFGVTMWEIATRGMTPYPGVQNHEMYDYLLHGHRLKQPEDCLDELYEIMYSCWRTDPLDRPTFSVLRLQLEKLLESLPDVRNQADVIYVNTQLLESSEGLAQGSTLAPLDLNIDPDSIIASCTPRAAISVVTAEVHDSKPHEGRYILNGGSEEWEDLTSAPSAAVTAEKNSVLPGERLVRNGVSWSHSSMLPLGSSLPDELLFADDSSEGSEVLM
# [12] = tested on: c-Abl (mouse); experiment: as above
# [13] = tested on: c-Src; experiment: as above
# [14] = target: Grb2 SH2 (UniProt P62993); experiment: SH2 binding enrichment of the phosphorylated peptide, bacterial display (enrichment ratio); higher = better substrate or ligand; peptides without Tyr show the background
# [15] = target: SHP2-C SH2; experiment: as above
# [16] = target: c-Src SH2; experiment: as above
# 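Throughout, for SH2 binding enrichment of the phosphorylated peptide, bacterial display: peptide library displayed on the E. coli surface as eCPX fusions, selected cells deep-sequenced, score is each peptide's frequency after selection divided by its frequency in the input.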
# 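Throughout, for phosphorylation enrichment, bacterial display: 11-residue human phosphosite peptides and single-mutation variants displayed on the E. coli surface, counted by deep sequencing, each peptide's frequency after selection divided by its frequency in the unselected input library; frequency after pTyr selection over input frequency; kinase dosed for 20-30% of maximal phosphorylation in three min.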
# Sequence of EPHB1 (P54762 whole entry, looked up): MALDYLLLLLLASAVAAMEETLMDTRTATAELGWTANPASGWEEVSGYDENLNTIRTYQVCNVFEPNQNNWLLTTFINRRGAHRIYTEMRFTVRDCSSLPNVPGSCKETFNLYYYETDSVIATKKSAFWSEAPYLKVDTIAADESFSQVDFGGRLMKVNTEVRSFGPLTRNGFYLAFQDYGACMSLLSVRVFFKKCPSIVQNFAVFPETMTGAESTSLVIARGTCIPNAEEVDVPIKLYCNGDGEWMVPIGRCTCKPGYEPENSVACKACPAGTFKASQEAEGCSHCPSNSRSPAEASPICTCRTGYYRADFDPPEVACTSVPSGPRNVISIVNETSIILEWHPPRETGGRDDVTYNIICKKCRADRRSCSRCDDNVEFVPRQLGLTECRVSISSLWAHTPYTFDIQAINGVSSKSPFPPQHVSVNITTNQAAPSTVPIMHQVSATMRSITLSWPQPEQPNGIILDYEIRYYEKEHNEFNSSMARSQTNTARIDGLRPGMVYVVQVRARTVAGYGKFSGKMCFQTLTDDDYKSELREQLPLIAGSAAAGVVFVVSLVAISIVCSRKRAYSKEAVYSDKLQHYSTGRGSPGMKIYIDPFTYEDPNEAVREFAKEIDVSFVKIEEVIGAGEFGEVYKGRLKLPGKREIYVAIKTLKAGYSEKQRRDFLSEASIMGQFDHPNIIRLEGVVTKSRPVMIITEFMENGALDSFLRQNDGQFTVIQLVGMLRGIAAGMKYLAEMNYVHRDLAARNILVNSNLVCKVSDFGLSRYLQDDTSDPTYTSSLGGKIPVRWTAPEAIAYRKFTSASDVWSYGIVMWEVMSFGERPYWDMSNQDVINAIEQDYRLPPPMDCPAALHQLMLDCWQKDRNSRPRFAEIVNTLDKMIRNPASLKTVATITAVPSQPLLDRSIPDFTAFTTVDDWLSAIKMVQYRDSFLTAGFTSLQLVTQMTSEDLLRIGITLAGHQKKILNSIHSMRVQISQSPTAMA
SH2 binding enrichment [14],SH2 binding enrichment [15],SH2 binding enrichment [16],Sequence,phosphorylation enrichment [1],phosphorylation enrichment [2],phosphorylation enrichment [3],phosphorylation enrichment [4],phosphorylation enrichment [5],phosphorylation enrichment [6],phosphorylation enrichment [7],phosphorylation enrichment [8],phosphorylation enrichment [9],phosphorylation enrichment [10],phosphorylation enrichment [11],phosphorylation enrichment [12],phosphorylation enrichment [13]
1.19,0.829,0.791,PPSGEYFGQCG [TRIP6_Y275],1.58,1.39,0.953,1.23,1.06,0.824,1.37,0.552,0.764,1.52,0.573,1.58,0.771
1.11,0.66,0.412,NPQKSYFICLY [WAS_Y83_R86C],1.11,0.675,0.604,0.848,0.975,0.496,1.2,0.443,0.438,1.12,0.557,0.925,0.415
0.826,0.573,0.36,WLFFRYLAIGC [ATP2A2_Y836],1.51,0.633,0.496,0.503,0.798,0.573,1.55,0.477,0.462,1.49,0.482,1.09,0.432
0.758,0.744,0.417,IDSTPYRQWFE [RPS8_Y109_YF],0.739,0.487,0.464,0.494,0.551,0.406,0.856,0.302,0.442,0.855,0.357,0.665,0.368
1.02,1.2,4.11,LGQRIYQYIQS [DYRK1B_Y271],1.54,20.9,12.5,5.29,3.3,18.1,2.86,4.18,8.12,1.3,13.5,2.74,5.08
1.01,0.678,0.693,VDTRAYFTSAT [MT-CO1_Y304],0.61,0.37,0.361,0.397,0.459,0.256,0.687,0.39,0.479,0.525,0.366,0.382,0.38
1.25,0.815,0.399,LQTYRYHGLSM [PDHA1_Y289_H292L],0.927,0.673,0.746,0.749,0.915,0.572,1.13,0.703,0.648,0.576,0.443,0.564,0.471
1.03,0.921,0.75,KYVKMCDNHQL [MYO9A_Y203_Y203C],0.635,0.442,0.632,0.532,0.547,0.379,0.546,0.407,0.432,0.491,0.447,0.512,0.429
1.01,0.873,0.57,AFLQTYSHEVS [PCDHGA5_Y753],0.845,0.584,0.64,0.442,0.683,0.531,0.971,0.602,0.551,0.957,0.585,0.518,0.812
0.666,0.44,0.742,PMDTYYDSTRG [DYNC2H1_Y2231],1.5,1.28,1.37,3.15,2.3,0.799,1.31,1.43,1.86,1.14,0.827,1.15,1.91
1.1,0.594,0.517,TFWKKYCTFWK [CCDC70_Y125_R126C],0.966,0.381,0.425,0.438,0.619,0.364,0.794,0.381,0.38,0.844,0.402,0.752,0.395
0.399,0.272,0.433,PLDGEYSTLQI [TP53_Y327_F328S],2.13,1.27,1.17,1.77,1.18,3.56,1.53,2.2,3.08,1.33,0.75,1.33,2.97
0.779,0.994,0.538,NVTGHYIPPFH [PPA2_Y59_S61P],0.518,0.455,0.393,0.396,0.463,0.395,0.679,0.445,0.418,0.498,0.659,0.735,0.443
0.775,0.583,0.507,QEGPEYWDLET [HLA-A_Y83_Q86L],2.76,1.59,1.18,3.97,3.3,0.748,2.29,0.846,0.978,2.02,0.742,1.56,0.998
0.759,0.454,0.438,PSPTRYSLSPS [RANBP2_Y785],0.976,0.536,0.856,0.525,0.577,0.436,0.886,0.537,0.515,0.439,0.56,1.5,0.597
1.08,0.969,0.708,WKESWYSMRKM [FGB_Y475_G472E],1.05,0.714,0.669,0.513,0.738,0.535,1.34,0.554,0.591,1.33,0.544,0.792,0.672

# The next lines start with the sequence.
Sequence,SH2 binding enrichment [14],SH2 binding enrichment [15],SH2 binding enrichment [16],phosphorylation enrichment [1],phosphorylation enrichment [2],phosphorylation enrichment [3],phosphorylation enrichment [4],phosphorylation enrichment [5],phosphorylation enrichment [6],phosphorylation enrichment [7],phosphorylation enrichment [8],phosphorylation enrichment [9],phosphorylation enrichment [10],phosphorylation enrichment [11],phosphorylation enrichment [12],phosphorylation enrichment [13]
GPGSGYTNIMR [PKLR_Y564_R559G],3.4,7.01,7.2,0.553,0.48,0.398,0.35,0.47,0.362,0.496,0.391,0.444,0.533,0.393,0.827,0.412
FDDIAHIRKTL [PIK3CA_Y1021_Y1021H],0.805,0.566,0.435,0.688,0.51,0.529,0.529,0.515,0.433,0.844,0.538,0.553,0.854,0.416,0.611,0.389
THPFPYLSLEI [MLH1_Y293_L292P],1.04,0.752,2.05,0.909,0.502,0.474,0.657,0.677,0.39,0.978,0.295,0.475,1.09,0.414,0.715,0.554
DENWFYTQAAS [RPS19_Y54_R56Q],0.906,0.726,0.881,1.15,0.49,0.877,0.455,0.682,0.483,1.06,0.388,0.392,0.876,0.395,0.62,0.472
SKLTIYDGRPS [MTM1_Y277_A279G],0.94,0.638,0.439,0.713,0.367,0.499,0.456,0.508,0.409,0.674,0.539,1.44,0.589,0.463,0.508,0.612
DRLASYLDKVP [KRT14_Y129_R134P],1.04,0.797,0.521,0.802,0.537,0.472,0.456,0.689,0.499,0.912,0.481,0.5,0.883,0.495,0.621,0.493
PVQAAYRKVVA [HBB_Y131_Q132R],0.859,0.597,0.493,0.502,0.199,0.237,0.367,0.373,0.339,0.505,0.407,0.543,0.336,0.348,0.48,0.421
HHIDYYKKTTN [FGFR1_Y654],0.699,0.535,0.443,0.577,0.47,0.721,0.568,0.803,0.646,0.633,0.711,0.481,0.592,0.663,0.569,0.481
QRRYVYYYSYL [PTEN_Y176],1.07,3.88,1,1.88,1.85,1.83,6.01,4.17,0.987,1.32,3.65,3.63,5.95,9.64,1.09,4.21
TGDVQYRSSVR [FREM2_Y2158],1.02,0.631,0.433,0.529,0.292,0.423,0.468,0.397,0.385,0.534,0.331,0.357,0.408,0.398,0.459,0.357
IHETTYNSIMK [ACTA1_Y281],0.862,1.68,1.93,0.475,0.332,0.338,0.384,0.436,0.414,0.711,0.746,1.38,0.477,0.3,0.572,1.04
VTVLDYDKIGK [SYT1_Y365],0.774,0.777,2.88,0.621,0.45,0.541,0.505,0.515,0.404,0.828,0.343,0.648,0.501,0.48,0.482,0.391
QNTADYYDLYG [PTPN11_Y62_G60A],1.25,0.739,0.7,2.62,12.4,11.9,15.3,14.1,0.762,1.02,4.14,3.94,2.14,1.68,0.722,4.18
FLEEEYVKAVG [TF_Y674_G671E_YF],1.08,0.934,0.569,1.19,0.59,0.67,0.517,0.721,0.49,1.16,0.558,0.517,1.18,0.424,0.679,0.528
GPIFRYDSGGA [CYP11B1_Y81_L83S],0.969,0.732,0.543,0.82,0.487,0.418,0.505,0.554,0.402,0.802,0.478,0.43,0.69,0.42,0.576,0.475
RGYRVCYTPDS [PTPRF_Y450_Y450C],0.534,0.687,0.41,1.32,0.892,0.909,0.784,1.36,0.71,1.61,0.602,0.618,1.86,0.634,1.16,0.985
LAIEWYVVVCK [RHO_Y136_R135W],1.05,0.583,0.5,2.49,1.8,1.33,1.45,2.21,0.847,3.21,0.972,1.36,1.88,0.676,2.27,0.852
